B1: Azoarcus group I ribozyme (parent)
chain: GUGCCUUGCGCCGGGAAACCACGCAAGGGAUGGUGUCAAAUUCGGCGAAACCUAAGCGCCCGCCCGGGCGUAUGGCAACGCCGAGCCAAGCUUCGGCGCCUGCGCCGAUGAAGGUGUAGAGACUAGACGGCACCCACCUAAGGCAAACGCUAUGGUGAAGGCAUAGUCCAGGGAGUGGCGAAAGUCACACAAACCGG

Variants of: B1
Assay: reverse-splicing fitness (ratio to wild type); higher = more active; in vitro selection; Mg2+ level not given
Method in brief: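 An in vitro group I ribozyme library with randomized positions was T7-transcribed and gel-purified. In triplicate, 10 pmol RNA in EPPS pH 7.5 was reacted with 50 pmoles of a 30-nt RNA substrate for 1 h at 37 °C across several added MgCl2 levels (1–48 mM), then stopped with EDTA. Products were reverse transcribed from a substrate-complementary primer, PCR-amplified and sequenced (HiSeq 4000). Fitness is a variant's read proportion after selection over that before, normalised to wild type.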

First: GUGCCUUGCGCCGGGAAACCACGCAAGGGAUGGUGUCAAAUUCGGCGAAACCUAAGCGCCCGCCCGGGCGUAUGGCAACGCGGAGCCAAGCUUCGGCGCCUGCGCCGAUGGAGGUGUAGAGACUAGACGGCACCCACCUAAGGCAAACGAUAUGGUGAAGGCAUAGUCCAGGGAGAGGCGAAAGUCACACAAACCGG [C82G A111G C150A U176A]
Second: GUGCCUUGCGCCGGGAAACCACGCAAGGGAUGGUGUCAAAUUCGGCGAAACCUAAGCGCCCGCCCGGGCGUAUGGCAACGCGGAGCCAAGCUUCGGCGCCUGCGCCGAUGGAGGUGUAGAGACUAGACGGCACCCACCUAAGGCUAACGCUAUGGUGAAGGCAUAGUCCAGGGAGCGGCGAAAGUCACACAAACCGG [C82G A111G A145U U176C]
The reverse-splicing fitness of the first is lower: 0.0337 for the first, 0.28 for the second.

Going from GUGCCUUGCGCCGGGAAACCACGCAAGGGAUGGUGUCAAAUUCGGCGAAACCUAAGCGCCCGCCCGGGCGUAUGGCAACGCGGAGCCAAGCUUCGGCGCCUGCGCCGAUGGAGGUGUAGAGACUAGACGGCACCCACCUAAGGCUAACGCUAUGGUGAAGGCAUAGUCCAGGGAGAGGCGAAAGUCACACAAACCGG [C82G A111G A145U U176A] to GUGCCUUGCGCCGGGAAACCACGCAAGGGAUGGUGUCAAAUUCGGCGAAACCUAAGCGCCCGCCCGGGCGUAUGGCAACGCGGAGCCAAGCUUCGGCGCCUGCGCCGAUGGAGGUGUAGAGACUAGACGGCACCCACCUAAGGCUAACGCUAUGGUGAAGGCAUAGUCCAGGGAGGGGCGAAAGUCACACAAACCGG [C82G A111G A145U U176G], the reverse-splicing fitness falls from 0.257 to 0.136.

Compared with GUGCCUUGCGCCGGGAAACCACGCAAGGGAUGGUGUCAAAUUCGGCGAAACCUAAGCGCCCGCCCGGGCGUAUGGCAACGCGGAGCCAAGCUUCGGCGCCUGCGCCGAUGGAGGUGUAGAGACUAGACGGCACCCACCUAAGGCUAACGCUAUGGUGAAGGCAUAGUCGAGGGAGGGGCGAAAGUCACACAAACCGG [C82G A111G A145U C169G U176G], GUGCCUUGCGCCGGGAAACCACGCAAGGGAUGGUGUCAAAUUCGGCGAAACCUAAGCGCCCGCCCGGGCGUAUGGCAACGCGGAGCCAAGCUUCGGCGCCUGCGCCGAUGGAGGUGUAGAGACUAGACGGCACCCACCUAAGGCUAACGCUAUGGUGAAGGCAUAGUCGAGGGAGAGGCGAAAGUCACACAAACCGG [C82G A111G A145U C169G U176A] is higher in reverse-splicing fitness: 0.00507 for the first, 0.0136 for the second.

Compared with GUGCCUUGCGCCGGGAAACCACGCAAGGGAUGGUGUCAAAUUCGGCGAAACCUAAGCGCCCGCCCGGGCGUAUGGCAACGCGGAGCCAAGCUUCGGCGCCUGCGCCGAUGGAGGUGUAGAGACUAGACGGCACCCACCUAAGGCUAACGCUAUGGUGAAGGCAUAGUCGAGGGAGCGGCGAAAGUCACACAAACCGG [C82G A111G A145U C169G U176C], GUGCCUUGCGCCGGGAAACCACGCAAGGGAUGGUGUCAAAUUCGGCGAAACCUAAGCGCCCGCCCGGGCGUAUGGCAACGCGGAGCCAAGCUUCGGCGCCUGCGCCGAUGGAGGUGUAGAGACUAGACGGCACCCACCUAAGGCUAACGCUAUGGUGAAGGCAUAGUCUAGGGAGAGGCGAAAGUCACACAAACCGG [C82G A111G A145U C169U U176A] is lower in reverse-splicing fitness: 0.0147 for the first, 0.0142 for the second.

Going from GUGCCUUGCGCCGGGAAACCACGCAAGGGAUGGUGUCAAAUUCGGCGAAACCUAAGCGCCCGCCCGGGCGUAUGGCAACGCGGAGCCAAGCUUCGGCGCCUGCGCCGAUGGAGGUGUAGAGACUAGACGGCACCCACCUAAGGCUAACGCUAUGGUGAAGGCAUAGUCUAGGGAGGGGCGAAAGUCACACAAACCGG [C82G A111G A145U C169U U176G] to GUGCCUUGCGCCGGGAAACCACGCAAGGGAUGGUGUCAAAUUCGGCGAAACCUAAGCGCCCGCCCGGGCGUAUGGCAACGCGGAGCCAAGCUUCGGCGCCUGCGCCGAUGGAGGUGUAGAGACUAGACGGCACCCACCUAAGGCUAACGCUAUGGUGAAGGCAUAGUCUAGGGAGCGGCGAAAGUCACACAAACCGG [C82G A111G A145U C169U U176C], the reverse-splicing fitness rises from 0.00489 to 0.0127.

Compared with GUGCCUUGCGCCGGGAAACCACGCAAGGGAUGGUGUCAAAUUCGGCGAAACCUAAGCGCCCGCCCGGGCGUAUGGCAACGCGGAGCCAAGCUUCGGCGCCUGCGCCGAUGGAGGUGUAGAGACUAGACGGCACCCACCUAAGGCUAACGCUAUGGUGAAGGCAUAGUCAAGGGAGAGGCGAAAGUCACACAAACCGG [C82G A111G A145U C169A U176A], GUGCCUUGCGCCGGGAAACCACGCAAGGGAUGGUGUCAAAUUCGGCGAAACCUAAGCGCCCGCCCGGGCGUAUGGCAACGCGGAGCCAAGCUUCGGCGCCUGCGCCGAUGGAGGUGUAGAGACUAGACGGCACCCACCUAAGGCUAACGCUAUGGUGAAGGCAUAGUCAAGGGAGCGGCGAAAGUCACACAAACCGG [C82G A111G A145U C169A U176C] is higher in reverse-splicing fitness: 0.0133 for the first, 0.0135 for the second.

Compared with GUGCCUUGCGCCGGGAAACCACGCAAGGGAUGGUGUCAAAUUCGGCGAAACCUAAGCGCCCGCCCGGGCGUAUGGCAACGCGGAGCCAAGCUUCGGCGCCUGCGCCGAUGGAGGUGUAGAGACUAGACGGCACCCACCUAAGGCUAACGCUAUGGUGAAGGCAUAGUCAAGGGAGGGGCGAAAGUCACACAAACCGG [C82G A111G A145U C169A U176G], GUGCCUUGCGCCGGGAAACCACGCAAGGGAUGGUGUCAAAUUCGGCGAAACCUAAGCGCCCGCCCGGGCGUAUGGCAACGCGGAGCCAAGCUUCGGCGCCUGCGCCGAUGGAGGUGUAGAGACUAGACGGCACCCACCUAAGGCUAACGCUAUGGUGAAGGCAUAGUCGAGGGAGUGGCGAAAGUCACACAAACCGG [C82G A111G A145U C169G] is higher in reverse-splicing fitness: 0.0052 for the first, 0.0101 for the second.

With GUGCCUUGCGCCGGGAAACCACGCAAGGGAUGGUGUCAAAUUCGGCGAAACCUAAGCGCCCGCCCGGGCGUAUGGCAACGCGGAGCCAAGCUUCGGCGCCUGCGCCGAUGGAGGUGUAGAGACUAGACGGCACCCACCUAAGGCUAACGCUAUGGUGAAGGCAUAGUCUAGGGAGUGGCGAAAGUCACACAAACCGG [C82G A111G A145U C169U] the reverse-splicing fitness was 0.0127.

Source: the RNAGym collection of RNA variant scans (doi:10.1093/molbev/msab373)
